# Test results: the DeepSol protein solubility set
# Test: soluble on expression in E. coli; label from the status in PepcDB or PDB records
row,Sequence,soluble on expression in E. coli
1,MSLYPAEHKEVMVQLMNQGNRSSLMQAWIDDGDTSLPPEKIQVPFMLTPPVAKIGANSGQQVKIKIMPNKLPTNKESIFYLNVLDIPPNSPEQEGKNALKFAMQNRIKLFYRPAGIAPVNKVTFKKLLVNRSGNGLVIKNDSANWVTISDVKANNVKVNYETIMIAPLESQSVNVKSNNANNWHLTIIDDHGNYISDKEGHHHHHH,not soluble
2,MGSDKIHHHHHHMSSSDRYMQRGVSSQKEDVHKAIKSIDKGIYPRAFCKIIPDILGGDPEYCNIMHADGAGTKSSLAYVYWKETGDISVWKGIAQDAVIMNIDDLICVGAVDNILLSSTIGRNKNLIPGEVLAAIINGTEEVLQMLRDNGIGIYSTGGETADVGDLVRTIIVDSTVTCRMKRQDVISNENIKAGNVIVGFASYGQTSYETEYNGGMGSNGLTSARHDVFNNVLASKYPESFDPKVPENLVYSGEMNLTDPYLNVPLDAGKLVLSPTRTYAPLMKEIIHQYKGKLDGVVHCSGGGQTKVLHFTDATTHIIKDNLFDVPPLFQLIQGQSNTPWEEMYKVFNMGHRLEIYTDAAHAEGMIAIAKKFNIEAKIIGRVEAPVAGKRLTITGPQGTEYTYA,not soluble
3,MVQDQLTSILTTVGLNLMAKLTDNSRSVVISPSEVALSVAKSTLKHCEPLPYELFQSDYESEFRELIEQLENFEAMKVNPSPPVWNFAISEFKKKNFKLSNGKLKKMNFIWINLETNMELSCEKTGAQMAQDKEFKVLSIPLAGDAGKFVVFFPENQEETIEESLKKLNTRKFQRLIDDLVPKFIHFEHPVFKIQSKFFISENLTMTDRGLTHEKEFEVCHGENNDFRRGLLMDRCEYVPYIFRVNRPFIFCVVQNGVPVTMGIFDGN,not soluble
4,MVFKMMYSEAILDYANSKKFRGKLDDATVIEEGKNISCGDEITLYLKVEDGVVKDAKFEGMGCVISQASASLMLERIIGERVEEIFSLIEEAEKMSRGENFDEGKLKNVTLMSDIKNYPARVKCFILAWKTLKEALKKISRP,soluble
5,MAHHHHHHMDEYDYNYATYDIDNFTNNFEDNLINYNQIDFINDNAEINNYSNEYYAYDEDLVEENVSEKRIHNKVLLSNDNEFDNNLINISNEIKTENSNNDTSLLKKRKIINDILLNIKKKMKKNDTLCIICLQNEKKYTFTCCYEYYCSLECFKKHDQQKCRNQNKNEPKISGSHNINMDDIKNSNHQKYEDTYYYQNEEDINKKQNDKVIENTIKLDNENKKNEINNINDMDTTCSNFPNNNLSTSLLNNDNNIPNNNENSESSDDYTDDYDMLTEEQKKKLKEDHTLKILLKNNYVREVFKQFTLSNDKIGYLSHYINDPTIVQVIDHIMKTIDDT,not soluble
6,MLTVKQIEAAKPKEKPYRLLDGNGLYLYVPVSGKKVWQLRYKIDGKEKILTVGKYPLMTLQEARDKAWTARKDISVGIDPVKAKKASSNNNSFSAIYKEWYEHKKQVWSVGYATELAKMFDDDILPIIGGLEIQDIEPMQLLEVIRRFEDRGAMERANKARRRCGEVFRYAIVTGRAKYNPAPDLADAMKGYRKKNFPFLPADQIPAFNKALATFSGSIVSLIATKVLRYTALRTKELRSMLWKNVDFENRIITIDASVMKGRKIHVVPMSDQVVELLTTLSSITKPVSEFVFAGRNDKKKPICENAVLLVIKQIGYEGLESGHGFRHEFSTIMNEHEWPADAIEVQLAHANGGSVRGIYNHAQYLDKRREMMQWWADWLDEKVE,soluble
7,MGSDKIHHHHHHMNSDIIVADFWKNNEEILTDFDKDSFCESWTENEMWSIEFKVAQTPKNAHCYSFLDYESSVYFRGQEFVVKQLSHDAVGKTLSKDIRAPHIYYTCQDGRQDDAITGSFTLEQCLTHIFKTDNRGFSWEIIDPSNILEKVQQENFGNNNYLTLIDQLLDDYGVVVIPDNRHLVFKPREIYGAKTENFIRYKYNTDEASFDIDTLSLKTKIKGYGKVDSNGNNYFSPITYTSPEVEKWGIRWQEPVSDERYTVAGNMQRRLKLELQDYPATTGSVILKNDYECEKGDYVLFIYEPLGIDYDVQIVAYKKYPFTIKAPEITLSNNKKSIVSIMAQLAKVLKGAK,not soluble
8,MSLTYPVLKGAGYVLIHTPDMIVQNGSTCTVERATNPDSEFLKEVSNHIRSYEDVVNYMPNQVYIGNRRPEELRDLPMPWCEQKIEGTRNGKFGEIMPQDEFIALMQISDAFDLVKLSQEFIDEVKPKIENNYPEIAPFVGKLKGDDIEEGKELVATHIAEGLYHDGKFVGYVKRAHDVDVNLNAHTMFENLVVKASGVLSAIQMLRHSKIDPAEIDYVIECSEEACGDINQRGGGNFAKSIAEIAGLQNATGSDTRGFCAAPTHALIQAAALVKAGIHKNVMVVAGGASAKLGMNAKDHVKKGLPVLEDVVGGFAVLVSENDGVNPVIRTDLTGKHTVGTGSSPQAVMTALITSGLDRANLKITDVDVYSVEMQNPDITKPAGAGDVPEANYKMIGALAVKRGDLEKKELKDFVSNKGLPGWAPTQGHIPSGAPYIGFLIDDLTTGNRNRAMIVGKGSLFLGRMTNLFDGVSFIAERNTGVTEETSGISKDEIKKIIAESMKKLALDMLEEGHHHHHH,soluble
9,MAKSTVRYVCSACGAVSLKYQGRCFECQSWGTLVETHLEEPDAKVRKKRPAGSMPEVQNLDDDAPSGFHRTLTGIGELDRVLGGGLMEASAILVGGEPGIGKSTLMLQLVPRLAGKKVLYVAGEESPNQIRERARRLSIKAPNLRLVSEVALERILDAIANEQPEMVIVDSIQTVYSSDYQSSAGTITQIRECAASLIRAAKEQNFILLIIGHITKEGSLAGPKALEHMVDTVVQFEGENYQRYRIIRSVKNRFGPTNEIGVFKMGEEGLTEVSNPSEFFISDRRTDVPGTAVLAGIEGSRALMVEVQALVSRTGYSMPQRISTGFDLKRIAIILAVLEKRLQFQTAGQDVFVKIAGGLKLVEPAADLAIAAAVASGLQDKPCNPTACCCGEIGLSGELRAISDGERRIREAVHLGFTSIVLPESNTRELKPSLKKLPIRIAGCRTLHEALEAMGV,not soluble
10,MSLHVLTLAIARAASIDELALAANKQRELVESLMSRGVRTRFVMELIAAVNEQIIEKAFELVVPPALHDQCCLVVLGSEGRGEQILKTDQDNALIIQDGLEWHQCQPIMETLTHTLLQLGYPLCPGKVMVNNPKWVRSQSDWKRTLTDWVKAARPEQVMDIAIFADAHAVAGNRALLAPVKAHLQHLMAGQELILAEFTRPALNFSVPLTLFGNVKSSKQGIDIKQGGIFPIVHGVRALSLEHAIDANNTFDRIEALVKKRVLEQETGDNLSEAFKLFLKLRLAQQLGNQHSTNQLDFKQLDRTERDLLRHSLHVVKKFKQWLGYHYQIRDEGHHHHHH,soluble
11,MSNNNTSIHDFDFSFICNYFKLLKRQGPGSPEATRKAVSFINELTDDAKIADIGCGTGGQTLFLADYVKGQITGIDLFPDFIEIFNENAVKANCADRVKGITGSMDNLPFQNEELDLIWSEGAIYNIGFERGMNEWSKYLKKGGFIAVSEASWFTSERPAEIEDFWMDAYPEISVIPTCIDKMERAGYTPTAHFILPENCWTEHYFAPQDEVRETFMKEHAGNKTAMDFMKGQQYERSLYSKYKDYYGYVFYIGQKRLEHHHHHH,soluble
12,MISPELVKEALKKKKVRSEEAFGLEYLRFNDDYKDIPRGTAIFKDFIIWGYPHIGRIFLLETGLREQFEAPFWVEEKVDGYNTRIFKYGDNYYALSRGGFICPFTTDRLPDLIDLRILDENPDLVICAEVAGPENPYIEESPPYVKEDVQLFVFDFMKKNEQGFLSQEEKMELIEKYNLPHVEILGRFTASEEGIKKIKEILKRFNEEGREGVVFKEDSERNKRAKYITSYANLMDIKTNAKNMLQLPPEYYTNRILRLVLFMYEEGLKTTEHLYEELGRAFIDGLFQAIEQFEKEHKVYKTFTCKFRKKENAIALLELLSKTSKHIQVKERRLEKEGDYWRLEFDKVFLNMTGLLGHLLSGGIVYD,soluble
13,MGSDKIHHHHHHMNKELETLIMSAVDLPTIPVVATKVIELIEQEDVTIEKLATAVSSDPAVAARILKLSNSAYYGCQRQINTLSAAIMLLGFKTLKSLVIAASLKQLNRRFGLTEKMLWEHSVGAALAGRVIATQGRFINEETGFLVGLFHDLGKTIMSNRDPQKFQGVMMRCYNEGIPFAEAERSVYPYSHAEVGALVIRKWNFPESLSTAIMHHHQFGSAPITDQYDLFLTATASLANKFCKKLGIGDRDADDDLNLTNAPEAMLLGFTSDTAEKALATFQETFEENKSFFLND,not soluble
14,MGSDKIHHHHHHMDIRQLTYFIAVAEAKNYSRAAKSLFVTQPTLSQSIKKLEAELNTILFLQNGRQLALTEAGEILYEKGQLLMTNVNQMVTEIQQLNQEKKEGIRVGLTSLFAIQFMKQISTFMATHSNVEVSLIQDGSRKLQELLAKGKIDIGLLSFPSTRNDITIEPLQTSTKGYKVSIVMPKSHPLATLPEIELNDLRDYKVASLNEHYMLGEMLPRKCRALGFDPHIVFKHNDWEVLIHSLQDLNAVTILPSEFESISQVQDLCWVPLKDKNNFYPIGIAYRNDTSFSPMIEEFLSLLKTN,not soluble
15,MAHHHHHHMLSTNISSNLNNTLVNITGRENKGEWLLYPQSNYEFNIDEKLKNKFIIDKEKCKKRINAYNKNGIRNSVLAIILCHRYEYPHLLLLQHIESQKYYLLNGKYKTWEKPKEVLKKKLQKYINKIKDIHFTPAQINKEQEETVEIGDFLGEWWRTQFNSVFLPYLPAHISRPKEYIRLYQVILSPKCIFHLPPGFTLKAIPLFDLNNCGLAISGLSSILSRFKLHCMVQEQDAEN,not soluble
16,MDDYVPIPFTLLKLPQKSIDVVLRRMCIEALVELSFTSKAAMQQTKHLGIKTERFIIAINSNEILIDVSGCRDFRFYTFECSTPSHHTVQKPIRVHVGFRGERWETPFFGVRQFLNHLMEIFHQTKLDSLHISTADPECSNELKGMEFGWLSMMSMTSDNNSSQDEDALRQFSGKTDSICLNRNPFSIEPSKQMQMILTRNMNVVSTKCDLNDVFVTNARSFTAFLKIEDVNIFLKHWMHRSDRKLKSAWFDLDAFRWDVEDVLEPLFKGIAYHVAPADREFIVHLPKKLSGCGDYRVIGGYDVRRNDGMTATIIVADRANVFLKMFFWI,not soluble
17,MIFYFSGTGNSKWIANQLSKEQQEDLFFIPDAWKNDTWEFSLREDEKIGFVFPVYSWAPPVIVQEFIRKLVLKGYQQQYLFFVCSCGDDTGLTRQVMEKALAARGWRCNAGFSVIMPNNYVLFLGFDVDSKELEKKKLAEAVPALEKVSRLITGRETVFACKEGSLPFIKTRIINPLFVRYQMSPKPFHATSECIGCKRCEKSCPVGNITMKERRPVWGKNCTACLACYHVCPQHAVQYGKKTKGKGHYFNPDSAY,not soluble
18,MGSDKIHHHHHHMVDTNHKIAFCIDSDGCAMDTMTYKHQLFFGPIAADIFGISEQERTSFLKEWDRVNLYSRTRGVNRFVGLVMGLEFAGVEHIDKLKEWVETTDSLSNNSLELALANDFSRDLEKALEWSNEVNRQIKNYEGDSLAFSGVLESLERLSQFGNVYVVSSANKEAVWQEWEEQGLLKYVDDIYCQDRGKKEDVIATLIASGYCRETILMVGDSLGDLAAAEQNGIAFYPVLVGKEVKSWEILREDIGEAFAKGQFEQQRQKESINTFWANLDN,not soluble
